The values that follow come from patent US20150346208A1 (SPRING BIOSCIENCE, published 2015).

What is called EC50 is the concentration at which the effect is half-maximal. A lower EC50 goes with a more potent agent.

Experiment [1] has as its target T1, human PD-L1 (Programmed death ligand-1) (human, UniProt Q9NZQ7 19-290).
T1 construct: whole, on cells; Endogenous protein; For IHC it was in formalin-fixed, paraffin-embedded tissue sections; for the Western blot it was in SDS-PAGE-fractionated cell lysates (45-55 kDa band); also called B7-H1; PDCD1L1
Nature of the experiment: IHC on FFPE placenta, 0.9 µg/ml. On the procedure: Rabbit anti-human PD-L1 monoclonal antibodies SP263, J45H2L4 and J27H6L4 were applied onto formalin-fixed paraffin embedded (FFPE) tissue samples to assess the staining patterns of these antibodies. Tissue samples include placenta (positive control), stomach (negative control) and colon. Immunohistochemistry was performed on BenchMark Ultra (Ventana Medical System) using StdCC1 cell conditioning and standard Opt iView DAB detection protocol. Each primary antibody was incubated at 0.9 μg/ml for 16 min.

In experiment [2] the target is T2, peptide immunogen CGIQDTNSKKQSDTHLEET (human PD-L1 aa 272-290) (human).
T2 construct: Synthetic peptide, immobilized in the ELISA; also called immobilized peptide immunogen; 19-amino acid peptide
T2 peptide: CGIQDTNSKKQSDTHLEET
The experiment is described as follows: ELISA, immobilized peptide immunogen (human PD-L1 aa272-290). As for the experimental part:
ELISA studies were performed with the SP263 antibody to evaluate binding to the immobilized peptide immunogen (human PD-L1 aa272-290).
In general terms: In an ELISA, binding on a coated surface is turned into a signal by an enzyme label.

Experiment [3] deals with T1, human PD-L1 (Programmed death ligand-1). The experiment is described as follows: IHC on FFPE placenta, 0.11-28 µg/ml.

T1 sequence (Q9NZQ7 19-290): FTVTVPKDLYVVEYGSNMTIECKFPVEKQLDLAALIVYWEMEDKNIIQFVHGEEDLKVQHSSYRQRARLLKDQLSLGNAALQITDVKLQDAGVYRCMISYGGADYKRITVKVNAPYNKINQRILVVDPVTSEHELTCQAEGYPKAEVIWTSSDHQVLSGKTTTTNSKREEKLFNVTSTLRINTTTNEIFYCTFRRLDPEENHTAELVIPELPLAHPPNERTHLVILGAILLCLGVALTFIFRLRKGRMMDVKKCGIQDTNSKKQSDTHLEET

B1: J45H2L4 rabbit anti-human PD-L1 monoclonal antibody (antibody, V domains shown)
VH: QSLEESGGRLVTPGTPLTLTCTASGFSLSSNAISWVRQAPGKGLEWIGTINSDSHIYSATWAKGRFTISKTSTAVDLKMTSPTTEDTATYFCAGRLFSSTNIWGPGTLVTVSS
VL: VMTQTSSPVSAAVGGTVTINCQASQSIYKDNWLSWFQQKPGQPPKLLIYLASTLASGVPSRFKGSGSGTQFTLTISDVVCDDAATYYCLGGESSSDDGIAFGGGTEVVVK
notes: the rabbit constant regions are not; also called anti-PD-L1 antibody clone J45H2L4
Consider B1, for which, in experiment [1], the binding result is “binds”.

B2: SP263 rabbit anti-human PD-L1 monoclonal antibody (antibody, V domains shown)
VH: QSLEESGGRLVTPGTPLTLTCTASGFSLSNHAISWVRQAPGKGLEWIGTINSDTHTYYATWPKGRFTISKTSSTTVDLKMTSPTTEDTATYFCARRIFSSSNIWGPGTLVTVSS
VL: AIVMTQTSSPVSAVVGGTVAINCQASQSIYNNNWLSWFQQKPGQPPKLLIYLASTLASGVPSRFKGSGSGTQFTLTISDVVCDDAATYYCIGGESSNNDGIAFGGGTEVVVK
notes: the rabbit constant regions are not; also called SP263 anti-PD-L1 antibody
B2 gave an EC50 in experiment [2] of 0.015 nM. In addition, the binding result in experiment [3] was “binds”.
